Results: the nanobody polyreactivity screen of Harvey et al. (2022)

Assay: yeast display, Sf9 membrane polyspecificity reagent, FACS + sequencing; frameworks hold sequencing errors
Method in brief: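 Galactose-induced (36–48 hours) yeast carrying a synthetic nanobody display library were exposed to 10% biotinylated, detergent-solubilized Sf9 membrane reagent at 4 °C for 1 hour. FACS followed streptavidin microbead enrichment, using low and high (top ~1%) gates for expression (anti-HA) and reagent binding (streptavidin). Colony PCR, MiSeq 2 × 250 sequencing and CDR-length filtering followed. Labels for polyreactivity reflect the gate of origin.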

Sequence	polyreactivity (PSR sort gate)
QVQLVESRGGLVQAGGSLRLSCAASGRIFYGYAMGGYRQAPGKERELVAGISKRGGTTRYADSVKGRFTISRDNAKNTVYLQMNSLKPEETAVSSCAAESFGLYASPGEEYWGQGTQVTVSS	high polyreactivity
QVQLVESGGGLVQAGGSLRLSCAASGSIFRSDPMGWYRQAPGKEREFVASITYRGGRTYYADSVKGRFTISRDNAKNTVSLQLNSLKPEDSAVYYCAARTRAGAWTSKYHDYWGQGTQVTVSS	high polyreactivity
QVQLVESGGGLVQAGGSLRLSCAASGFTFTYYAMGWYRQAPGTERELVAAISWRGTSTFYADSVKGRFTISRDNAKNTVYLQMNSLKPEDTAVYYCAAVGQWGYGYWGLGTQVTVSS	high polyreactivity
QVQLVESGGGIVQAGCSLRIICAASGYTFGYYAMGSYRQAPGNERQFVAAITIDARTTYADSVKGRFTISRDKAKKTFYLQINSLKADDTAFYYCARGYFPYGYPWRWGYDRFDYWGQGTLVTVSS	low polyreactivity
QVQLVESGGGLVQAGGSLRLSCAASGSIFADYVMGWYRQAPGKERELVAAITRRGRTYYSDSVKGRFTISRDNAMNTVYIQMNILKPEDSAVYYCDKVASGKIDSWGQGTQVTVSS	low polyreactivity
QVQLVESGGGLVQARGSLRLSCAASGSTFLFYAMGWYRQPPGKERELVAAISRGDSTYYAESVKGRFTISRDIAKNTVYLQMNSLKPEDTAVYYCAAGYNHLYVYRMYYWGQGTQVTVSS	high polyreactivity
QVQLVESGGGLVQAGGSLRLSCAASGSTFGRSVMGWYRQAPGNVRELVGAISRRGGSTYYADSVKGRFTISRDNAKKTVYIQLHSRKPEDPAVYYSPVDGARSGEPYDSMDYWGQGTHVTVSS	high polyreactivity
QVQLVESGGGLVQAGGSLRVSCAASGLTFRFYAMGWYRQAPGKERELVAAISTSGGSTYYADSVKGRFTISRDNAMNTVYLQMNSLKPEDTAVYYCAARARYYHSRYDYWGQGTQVTVSS	high polyreactivity
QVQLVESGVGFVQAGASLRLSSAASGSIFRINAMGWYRQAPGKVRELVAAITRSGGSTFYADSVKGRFTMSRDYAKNTVYFQMHSLTPEDTAVYFCAAVWYYSTVPARYEYWGQGTQVTVSS	low polyreactivity
QVQLVESGAGLVHAGGSLRLSCASSGRTFAKYAMGWYRQAPGKERELVAAISGRSGSTYYADSVKGRFTISRDNPKNTVYLQMNSLKPEDTAVYYCAASGGSRYDWVQGTQVTVSS	high polyreactivity
QVQLVESGGGLVLAGGSLRLSCAASGFTFEKSVMGWYRQAPGNEREFVAAITRSGGRTYYADSVKGRFTISRDNAKNTVYLQMNSLKPEDTAVYFCAAAFSRSDTGGGSWGQGTQVTVSS	high polyreactivity
QVQLVESGGGLVQAGGSLRLSCAASGRIFQWYAMGWNRQAPGKERELVAAISWRGGSTYYADSVKGRFTISRDNAKNTVYLQMNSLKPEDTAVYYCNAVRRASSGYDYWGHGTQVTVSS	high polyreactivity
QVQLVESGGGLVQAGGSLRLSCAASGRIFYTNGMGWYRQAPGKERELVAAITYSGGNTFYADSVKGRFTISRDNSKNTVYLQMNSLKPEDTAVYYCAATFTYLGYWYDYRGQGTQVTVSS	low polyreactivity
QVQLVESGGGLVHAGGSLRLSCAASGSTFFPYDMGWYRPEPGTERYFVAGISSDGGTSYADSVKGRFTISRDNAKNTVYLQMNSMKPEDTAVYDCAALQADGDRYPEFDLMDYWGQGSQVTVSS	low polyreactivity
QVQLVESGGGLVQAGGSLRLSCAASGFIFDAYAMGWYRQAPGKERELVAAITRGNTYYADSVKGRFTISRDNAKNTVYLQMNSLKPEDTALYYCNADYNYANYPHDYWGQVTQVTVSS	low polyreactivity
QVQLVESGGGLVQAGGSLRLSCAASGSIFGYNAMGWSRQAPGKERELVAGITSGTSTNYADSVKGRFTISRDNAKNTVYLQMNSLKPEDTEVYYCARTSYRFYRKRYYWGQGTQVTVSS	high polyreactivity
QVHLVESGGGLVQAGGSLRLSCAATGRTFIIYTMAWYRQAPGKESEFVAAITRSGGGTYYADSVKGRFTISRDNAKNTVYLQMNSQKPEDTAVYYCAAVRFYDQAYDYWGQGTQVTVSS	low polyreactivity
QVQLVESGGGLVQAGGSLRLSCAASGSIFDDNAMGWYRPAPGKERELVATINYGGGRTSYADSVKGRSTISRDNAKNTVYLQMNSLKPEDTAVYYCAADPRQKEDYWGQGTQVTVSS	low polyreactivity
QVQLGESGGGLVQAGGSLRLSCAASGRTFGLKAMGWYRQAPGKERELVAAINWRGTSTYYADSVKGRFTISRDNAKNTVYLQMNSLKPEDTAVYYCAARRSVGGYGYWGQGTQVTVSS	high polyreactivity
QDQLVESGGGLVQAGGSLRLSCAASGRILTKYAMGWYRQAPGKERELVAAISDSGTGTYYADSVKGRFTISRDNAKNTVYLQMNSLKPEDTAVYYCNAQTRRTRTYHGHKYGYWGQGTQVTVSS	high polyreactivity
QVQLVESGGGLVQAGGSLRLSCAASGSILSTYAMGWYRQAPGKERELVASISSNAGSTYYADSVKGRFTISRDNAKNTVYLQMNSLKPEDTAVYYCATESYVEGDYWGQGTQVTVSS	low polyreactivity
QVQLVESGGGLVQAGGILRLSCAASGRILVSYAMGWYRQAPGKERELVAAISRSGGSTYYADSVKGRFTISRDNAKNTVYLQMNSLKPEDTAVYYCNVYRFSRYDYWGQGTQVTVSS	high polyreactivity

Sequence	polyreactivity (PSR sort gate)
QVQLRESGGGLVQAGGSLSLSCAASGTIFYSRYMGWYRQAPGKEREFVASISSGGNTNYADSVKGRFTISRDNAKNTVYLQMNSLKPEDTAVYYCAVNTGLITTCPYWGQGTQVTVSS	high polyreactivity
QVQLVESGGGLVQAGGSLRLSCAASGSIFAAYTMGWYRQAPGKERELVAAISVSTVSTYYADSVKGRFTISRDNAKNTVYIQMNSLKPEDTAVYYCNADATDSYPEKDEHDSWGQGTQVTVSS	low polyreactivity
QVQLVESGGGLVQAGGSLRLSCAASGSTFYYNTMGWYRQAPGKDRELVAAITWTGGSTYYADSVKGRFTISRDNAKNTVYLQMNSLKPEDTAVYYCAAVNWRDEIYDYWGQGTQVTVSS	low polyreactivity
QVQLVESGGGIVQAGGSLRLSCAASGGTFQRNAMGWYIQAPGKEREFVATITRGGGSTYYADSVKGRFTISRDNAKNTVYFQMNSLKPEDSAVYYCNANTSYYQRYNYWGQGTQVTVSS	high polyreactivity
QVQLVESGGGLVQAGGSLRLSCAASGRIFAYNAMGWYRQAPGKERELVAAITWSGSTYYADSVKGRFTISRDNAKNTVYLQMNSLKPEDTAVYYCNAQYRGYWNRGYDYWGQGTQVTVSS	high polyreactivity
QVHLVESGGGLVQAGGSLRLSCAASGSILPFNAMGWYRQAPGKDRELVAAIDGSGGDTYYADSVKGRFTISRDNAKNTVYLHMNSLKPEDTAVYYCAAEYYYTSQLAKYHYGYEYWGQGTQVTVSS	high polyreactivity
QVQLVESGGGFVQAGGSLRLSCAASGRTFLAMGWYRQAPGKERELVAAISRTNYADSVKGRFTISRDNAKNTVYLQMNSLKPEDTAVYYCNARRSYFLRYGVNYWGQGTQVTVSS	low polyreactivity
QVQLVESGGGLVQAGGILRLICAASGLTFYRYAMGWYRQAPGKERELVAAINSRGSTYADSVKGRFTISRDNAKNTVYFQMNSLKPEDSAVYYCAARGRYRLYGYWGQVTQVTVSS	high polyreactivity
QVQLVESGGGLVQAGGRLRLSCAASGFTFAYYAMGWYRQAPGKERELVAAIRWSGTRTYYADSVKGRFTISRDHAKNTVYLQMNSLKPEDTAVYYCAKGIWYGTSGYYYWGQGTQVTVSS	high polyreactivity
QVQLVESGGGLVQAGGSLRLSCAASGRTFRRYVMGGYRQAPGKERELVATITSGGRTNYADSVKGRFTISRDNAKNTVYLQMNSLKPEDTAVYYCNAVRIGLRYYYWGQGTQVTVSS	low polyreactivity
QVQLVESGGGLVQAGGSLRLSCAASGIIFGGNAMGWYRQAPGKERELVATISNGGSTKYADSVKGRFTISRDNAKNTVYLQMNSLKPEYTAVYYCAAQPRVGSYVRSSRGRYNHWGQGTQVTVSS	high polyreactivity
QVQLVESGGGLVQAGGSLRLSCAASGFTFIRNAMGWYRQAPGKERELVAAISWRGVRTYADSVKGRFTISRDNAKNTVYLQMHSQKPEDTAVYYCAARDAHYYPTMGYWGQGTQVTVSS	high polyreactivity
QVQLVESGGGLVQAGGSLRLSCAASGLIFGGNAMGWYRQAPGKERELVAAITYRTGSTYYADSVKGRFTISRDNAKITVYLQMNSLKPEDTAVYDCAAAVSLGYPVAFYYWGQGTQVTVSS	low polyreactivity
QVQLVESGGGLVQAGGSLRLSCAASGSTFVGYAMGWYRQAPGKERELVAGITASGTNTYYADSVKGRFTISRDNAKNTVYLQMNSLKPEDTAVYYCAAAFVRPPPYVGYSRFDYWGQGTQVTVSS	high polyreactivity
QVQLVESGGGLVQAGGILRLSCAASGITFKPYGMGWYRQAHGKESELVADITSGGITYYADSVKGRFTISRDNAKNTVYLQMNSLIAEDTAVYFCATGDLFVYYWGYVVRLYDFWGQGTQVTVSS	low polyreactivity
QDQLVESCGGLVQAGGSLRLSCAASGRTFYRYAMGWYIQAPGKERELVADITRRVGITHYADSVKGRFTISRDYAKNTVYLKMNSLKPEDTAVYYCAARKYGSRYRLKYDYWGQGTQVTVSS	high polyreactivity
QVQLVESGGGLDQAGGSLRLSCAASGSTFHYYAMGWYRQPHGKERELVAVISSGGSTYYADSVKGRFTISRDNAKNTVYLQMNSLKPEDTAVYYCAAEYFLLAGKGYNGGDYYVYDYWGQGTQVTVSS	low polyreactivity
QVQLVESGGGLVQAGGSLRLSCADSGFIFTVNAMGLYRQAPGKERELVAAITSGGNTYYADSVKGRFTISRDNAKNTVYLQMNSLKPEDAAVYYCNAVFYTWSPYGTTVRSYGYWGQGTQVTVSS	high polyreactivity
QVQLVESGGGLVQAGGSLRLSCAASGSTFLINAMGWYRQAPGKERELVAAITASGGSTYADSVKGRFTISRDNAKNTVYLQMNSLKPEDTAVYYCAARYFPRHRYYYWGQGTQVTVSS	high polyreactivity
QVKLVESGGGLVQAGGSLSLSCAATGIIFRFYSMGCYRQAPGKERELVAVITSRSDSTYYADSVKGRFTISRDNAKNTFYLQKNSLKPEDTAVYYCNARYPWYYRYSTYDYWGQGTQVTVSS	high polyreactivity
QVQLVESGGGLVQAGGSLRLSCAASGFIFPYNTMGWYRQAPGTERELVAAIDSGGSTNYADSVKGRFTISRDNAKNTVDLQMNSLKPEDTAVYYCAADDPGSWWVGLLLTGVDDDYWGQGTQVTVSS	low polyreactivity
